Data as given in article PMC6035297 (2018).
Square brackets hold non-standard residues; d marks the D form. Ends that are not written are not given here. pY = N[C@@H](Cc1ccc(OP(=O)(O)O)cc1)C(=O)O

Molecular target: T1, CTpY phosphopeptide (PLCγ1 pTyr783) 779-790 (Homo sapiens, UniProt P19174)
T1 chain: NPGF[pY]VEANPMP
Assay: NMR titration

Kd: < 15 µM
B1: PLCγ1 tandem SH2 (NSH2CSH2ΔCT) nSH2-cSH2 545-770 (protein)
chain: HSNEKWFHGKLGAGRDGRHIAERLLTEYCIETGAPDGSFLVRESETFVGDYTLSFWRNGKVQHCRIHSRQDAGTPKFFLTDNLVFDSLYDLITHYQQVPLRCNEFEMRLSEPVPQTNAHESKEWYHASLTRAQAEHMLMRVPRDGAFLVRKRNEPNSYAISFRAEGKIKHCRVQQEGQTVMLGNSEFDSLVDLISYYEKHPLYRKMKLRYPINEEALEKIGTAEPD
